Publication PMC4137059 (The Journal of Cell Biology, 2014)
No end group written: not given here.

B2: Mtw1-Nnf1 heterodimer (complex)
chain 1: MSAPTMRSTSILTEHLGYPPISLVDDIINAVNEIMYKCTAAMEKYLLSKSKIGEEDYGEEIKSGVAKLESLLENSVDKNFDKLELYVLRNVLRIPEEYLDANVFRLENQKDLVIVDENELKKSEEKLREKVNDVELAFKKNEMLLKRVTKVKRLLFTIRGFKQKLNELLKCKDDVQLQKILESLKPIDDTMTLLTDSLRKLYVDSESTSSTEEVEALLQRLKTNGKQNNKDFRTRYIDIRTNNVLRKLGLLGDKEDEKQSAKPDARTQAGDIVSIDIEEPQLDLLDDVL
chain 2: MVNSHGIRYIRLKQVFNRALDQSISKLQSWDKVSSCFPQYVNSKQGAINVANCQRQLTEFWTELCQREFKEIMEERNVEQKLNELDELILEAKERYTDRDQDEVNKGPAIDELSSKELVECHLYSQRMHAIHEIDERLAKVNEMNDQLAQELKDLETQVEVEKNEIGKMYDEYLGSHTDQPANVLLVQSLNDMVLELKENY

What was measured:
Ndc80 complex = Ndc80 complex (budding yeast, UniProt P40460;P33895;Q04477;P40014); assay: SEC
Ame1–Okp1 complex = Ame1–Okp1 complex (budding yeast, UniProt P38313;P53298); assay: ITC
Mtw1-Nnf1 heterodimer = target: B2; assay: ITC

Chain of Ame1–Okp1 complex (P53298 whole entry, one chain of several): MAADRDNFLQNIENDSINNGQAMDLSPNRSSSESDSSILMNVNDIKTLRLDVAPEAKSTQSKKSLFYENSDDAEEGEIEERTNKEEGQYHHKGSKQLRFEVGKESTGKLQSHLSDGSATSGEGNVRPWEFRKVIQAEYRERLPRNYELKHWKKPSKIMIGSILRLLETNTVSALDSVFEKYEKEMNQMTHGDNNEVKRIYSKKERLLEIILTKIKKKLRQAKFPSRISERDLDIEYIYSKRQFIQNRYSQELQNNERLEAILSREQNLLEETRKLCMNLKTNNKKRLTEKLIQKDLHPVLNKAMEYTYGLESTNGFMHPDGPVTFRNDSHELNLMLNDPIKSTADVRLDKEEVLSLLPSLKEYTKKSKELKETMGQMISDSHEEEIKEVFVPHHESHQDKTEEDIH
Chain of Ndc80 complex (P40460 whole entry, chain 1 of 4): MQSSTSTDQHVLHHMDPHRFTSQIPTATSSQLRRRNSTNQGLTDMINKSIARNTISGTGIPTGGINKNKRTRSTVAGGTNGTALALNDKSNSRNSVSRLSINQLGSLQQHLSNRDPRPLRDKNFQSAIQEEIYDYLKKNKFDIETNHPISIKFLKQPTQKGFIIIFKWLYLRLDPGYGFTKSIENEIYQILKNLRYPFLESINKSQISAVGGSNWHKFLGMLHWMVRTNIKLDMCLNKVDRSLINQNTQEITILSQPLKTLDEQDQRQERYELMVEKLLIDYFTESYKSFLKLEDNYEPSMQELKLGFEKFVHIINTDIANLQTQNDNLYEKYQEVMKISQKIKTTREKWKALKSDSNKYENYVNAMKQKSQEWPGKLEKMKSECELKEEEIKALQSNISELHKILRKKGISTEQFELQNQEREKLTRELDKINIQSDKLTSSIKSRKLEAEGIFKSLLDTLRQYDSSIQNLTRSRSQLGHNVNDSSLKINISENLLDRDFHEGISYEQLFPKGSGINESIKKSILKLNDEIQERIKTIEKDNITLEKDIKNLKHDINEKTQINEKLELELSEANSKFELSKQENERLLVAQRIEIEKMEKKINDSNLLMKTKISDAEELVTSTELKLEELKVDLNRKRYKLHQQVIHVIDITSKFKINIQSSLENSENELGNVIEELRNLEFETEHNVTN
Chain of Ndc80 complex (P33895 whole entry, chain 2 of 4): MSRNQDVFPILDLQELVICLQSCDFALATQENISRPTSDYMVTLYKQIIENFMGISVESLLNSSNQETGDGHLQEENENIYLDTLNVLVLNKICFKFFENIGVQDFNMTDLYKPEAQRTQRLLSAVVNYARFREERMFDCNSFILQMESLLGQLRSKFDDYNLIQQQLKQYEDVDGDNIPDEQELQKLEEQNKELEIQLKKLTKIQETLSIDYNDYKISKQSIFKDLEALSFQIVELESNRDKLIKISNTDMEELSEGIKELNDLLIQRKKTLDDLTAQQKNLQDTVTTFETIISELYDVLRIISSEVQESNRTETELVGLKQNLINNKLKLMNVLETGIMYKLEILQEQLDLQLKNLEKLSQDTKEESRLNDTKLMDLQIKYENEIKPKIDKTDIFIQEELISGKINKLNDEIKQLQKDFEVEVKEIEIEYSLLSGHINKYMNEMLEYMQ
Chain of Ndc80 complex (Q04477 whole entry, chain 3 of 4): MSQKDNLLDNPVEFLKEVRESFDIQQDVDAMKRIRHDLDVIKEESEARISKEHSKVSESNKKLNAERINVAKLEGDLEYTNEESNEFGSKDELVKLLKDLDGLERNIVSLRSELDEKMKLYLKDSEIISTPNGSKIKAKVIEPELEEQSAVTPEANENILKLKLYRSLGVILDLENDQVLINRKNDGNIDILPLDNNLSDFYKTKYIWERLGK
Chain of Ndc80 complex (P40014 whole entry, chain 4 of 4): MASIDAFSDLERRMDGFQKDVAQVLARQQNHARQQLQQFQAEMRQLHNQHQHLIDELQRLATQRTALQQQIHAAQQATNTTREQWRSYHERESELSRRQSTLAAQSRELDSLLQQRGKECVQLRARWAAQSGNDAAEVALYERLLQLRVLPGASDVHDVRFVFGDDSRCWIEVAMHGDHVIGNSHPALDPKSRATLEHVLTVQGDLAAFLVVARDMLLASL

B1: Mtw1 complex (recombinant four-protein complex with a deletion of the N-terminal 172 residues of Dsn1) (complex)
chain 1: MSAPTMRSTSILTEHLGYPPISLVDDIINAVNEIMYKCTAAMEKYLLSKSKIGEEDYGEEIKSGVAKLESLLENSVDKNFDKLELYVLRNVLRIPEEYLDANVFRLENQKDLVIVDENELKKSEEKLREKVNDVELAFKKNEMLLKRVTKVKRLLFTIRGFKQKLNELLKCKDDVQLQKILESLKPIDDTMTLLTDSLRKLYVDSESTSSTEEVEALLQRLKTNGKQNNKDFRTRYIDIRTNNVLRKLGLLGDKEDEKQSAKPDARTQAGDIVSIDIEEPQLDLLDDVL
chain 2: MVNSHGIRYIRLKQVFNRALDQSISKLQSWDKVSSCFPQYVNSKQGAINVANCQRQLTEFWTELCQREFKEIMEERNVEQKLNELDELILEAKERYTDRDQDEVNKGPAIDELSSKELVECHLYSQRMHAIHEIDERLAKVNEMNDQLAQELKDLETQVEVEKNEIGKMYDEYLGSHTDQPANVLLVQSLNDMVLELKENY
chain 3: MSQGQSKKLDVTVEQLRSIYHQFHDILEEKTDLHLPKKEYDDDAVRREVQIQLQEFLLSAMTMASKSLEVVNADTVGKTVKQLIMESQEKYMEPFDLDLNEQVRKMYQEWEDETVKVAQLRQTGPAKINEVYNNSKDEYLAQLDGRIGVLQARMMQQQSADHDDSTDDADDHINWEHIKQDYVASLNELYQTQQDLPKVRYNVEKVKRLMDFLEED
chain 4: HSIMPNSSLQPFYSQPTAAGGPDMTTPQNISSSQQLLPAPQLFPYGSFHQQQLQQPHYIQRTRERKKSIGSQRGRRLSMLASQANGGSTIISPHKDIPEEDFYTVVGNASFGKNLQIRQLFNWCLMRSLHKLELKAKNQEEEGELEHLTKKSKLESTKAETDYVDPKRLAMVIIKEFVDDLKKDHIAIDWEDEEKYEDEDEEKILDNTENYDDTELRQLFQENDDDDDDDDEVDYSEIQRSRRKFSERRKALPKEPKKLLPNSKNVENTKNLSILTSKVNAIKNEVKEWAVTLDTSRPDLEWQELTSFSSQPLEPLSDTEEPDLAIADVETKLETKVDELRYQSHILNSHSLALNEITNSKVNKLNIETMRKISSETDDDHSQVINPQQLLKGLSLSFSKKLDL
Ndc80 complex
  binding result: binds

## B2
Ame1–Okp1 complex
  Kd: 1.6 µM
  stoichiometry N: 1

## {GST}-MDRDTKLAFRLRGSHSRRTDDIDDDVIVFK (domain or fragment) [GST-Ame1^1-30]
Mtw1-Nnf1 heterodimer
  Kd: 1.5 µM
